{"source": "patent US7033773B1", "about": "“Screening assays for G protein coupled receptor agonists and antagonists” (The General Hospital Corporation, priority 1997, dated 2006)", "target": "T1, human PTH/PTHrP receptor (Homo sapiens, UniProt Q03431)", "T1 sequence (Q03431 27-593)": "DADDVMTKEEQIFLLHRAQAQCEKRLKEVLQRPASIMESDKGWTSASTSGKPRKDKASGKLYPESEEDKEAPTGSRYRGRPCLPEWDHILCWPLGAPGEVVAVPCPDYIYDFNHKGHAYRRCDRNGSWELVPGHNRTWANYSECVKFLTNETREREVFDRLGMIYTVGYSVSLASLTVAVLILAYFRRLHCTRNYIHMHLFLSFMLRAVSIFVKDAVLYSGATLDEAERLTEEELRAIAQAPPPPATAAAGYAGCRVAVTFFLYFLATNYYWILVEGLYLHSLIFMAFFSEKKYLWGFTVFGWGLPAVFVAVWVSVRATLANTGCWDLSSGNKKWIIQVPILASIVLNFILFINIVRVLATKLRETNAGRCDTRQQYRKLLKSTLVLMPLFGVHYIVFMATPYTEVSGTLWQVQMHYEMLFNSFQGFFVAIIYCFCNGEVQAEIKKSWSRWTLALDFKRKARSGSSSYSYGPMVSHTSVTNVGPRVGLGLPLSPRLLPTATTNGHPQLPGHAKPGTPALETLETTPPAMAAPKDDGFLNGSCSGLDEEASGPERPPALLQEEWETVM", "test": "IP3 production (PLC activation) in LLC-PK1 cells expressing human PTHR", "assay_type": "cell-based", "parameters": "transfected with a full-length human PTH/PTHrP receptor cDNA; expressed in transfected cells", "conditions": "for formation of IP3 (activation of phospholipase-C): peptide 1000 nM, mean±SEM", "procedure": "Cells were seeded into 24-well plates at a density of 2.5×10^5 cells/well and cultured for a further 2 days before study. The cells were labeled at 37° C. for 16 h before assay with 3 uCi/ml of [^3H]myo-inositol in assay medium (serum- and inositol-free DMEM (GIBCO-BRL, Grand Island, N.Y.) supplemented with 0.1% BSA). After washing the cells with prewarmed assay medium containing 30 mM LiCl, they were incubated with 0.25 ml of assay medium containing 30 mM LiCl and stimulators (or vehicle) at 37° C. for various intervals(1-30 min). IP3 formation was arrested by aspiration and immediate addition of 0.5 ml of ice-cold 5% TCA. The acid extracts then were extracted twice with two volumes of water-saturated ether and adjusted to pH 7.4 with concentrated NaOH and Tris base (final concentration=10 mM) prior to chromatography on AG 1×8 anion-exchange columns (Bio-Rad, Richmond, Calif.), as previously described (Guo, J., et al., Endocrinology 136:3884-3891 (1995)). After eluting other fractions (free [^3H]myo-inositol, glycerophosphate inositol, IP1, and IP2), IP3 fractions were collected and their content of radioactivity was determined by liquid scintillation spectrometry (Beckman, model LS 6000IC).\nHKRK B7 cells and HKRK B28 cells, previously loaded with [^3H]myo-inositol, were incubated with each peptide (1000 nM) for 30 min or 4 min, respectively. The formation of IP3 is expressed as a percentage of the amount measured in vehicle-treated controls. Values shown are means±SEM of triplicate determinations."}
{"substance": "hPTH(1-31)", "values": [{"measurement": "activation of PLC (in words)", "setting": "1000 nM, HKRK B28 at 4 min and HKRK B7 at 30 min", "result": "stimulated PLC equivalently to hPTH(1-34)"}, {"measurement": "formation of IP3 (activation of phospholipase-C)", "setting": "HKRK B7 cells, 30 min stimulation", "result": "275 ± 21 percentage of vehicle-treated"}, {"measurement": "formation of IP3 (activation of phospholipase-C)", "setting": "HKRK B28 cells, 4 min stimulation", "result": "170 ± 14 percentage of vehicle-treated"}]}
